Reference: IntAct's records for PubMed 15328353

B1: Plasma serine protease inhibitor (Mus musculus), P70458 (parent)
chain: MRFFPILCLVLFISHGVASRRHSHSKKKKAKESSVGAVGPPSSKDFAFRLYRALVSESPGQNVFFSPLSVSMSLGMLSLGAGLKTKTQILDGLGLSLQQGQEDKLHKGFQQLLQRFRQPSDGLQLSLGSALFKDPAVHIRDDFLSAMKTLYMSDTFSTNFGNPEIAKKQINNYVAKQTKGKIVDFIKDLDSTHVMIVVNYIFFKAKWQTAFSETNTHKMDFHVTPKRTTQVPMMNREDGYSYYLDQNISCTVVGIPYQGNAIALFILPSEGKMKQVEDGLDERTLRNWLKMFTKRRLDLYLPKFSIEATYKLENVLPKLGIQDVFTTHADLSGITDHTNIKLSEMVHKSMMEVEESGTTAAAITGAIFTFRSARPSSLKIEFTRPFLLTLMEDSHILFVGKVTRP
partner: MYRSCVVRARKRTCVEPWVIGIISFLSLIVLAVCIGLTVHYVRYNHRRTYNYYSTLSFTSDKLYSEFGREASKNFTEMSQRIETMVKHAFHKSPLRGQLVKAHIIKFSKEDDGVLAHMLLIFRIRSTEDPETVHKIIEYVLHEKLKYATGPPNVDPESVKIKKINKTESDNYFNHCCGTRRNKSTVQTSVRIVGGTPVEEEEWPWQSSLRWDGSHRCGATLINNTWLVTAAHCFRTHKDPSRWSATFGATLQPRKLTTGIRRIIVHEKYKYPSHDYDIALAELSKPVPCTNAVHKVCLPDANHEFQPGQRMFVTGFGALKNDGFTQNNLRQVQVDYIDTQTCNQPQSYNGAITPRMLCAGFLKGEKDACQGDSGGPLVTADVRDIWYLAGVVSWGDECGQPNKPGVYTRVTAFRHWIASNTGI
B2: Plasminogen activator inhibitor 1 (Mus musculus), P22777 (parent)
chain: MQMSSALACLILGLVLVSGKGFTLPLRESHTAHQATDFGVKVFQQVVQASKDRNVVFSPYGVSSVLAMLQMTTAGKTRRQIQDAMGFKVNEKGTAHALRQLSKELMGPWNKNEISTADAIFVQRDLELVQGFMPHFFKLFQTMVKQVDFSEVERARFIINDWVERHTKGMINDLLAKGAVDELTRLVLVNALYFSGQWKTPFLEASTHQRLFHKSDGSTVSVPMMAQSNKFNYTEFTTPDGLEYDVVELPYQRDTLSMFIAAPFEKDVHLSALTNILDAELIRQWKGNMTRLPRLLILPKFSLETEVDLRGPLEKLGMPDMFSATLADFTSLSDQEQLSVAQALQKVRIEVNESGTVASSSTAFVISARMAPTEMVIDRSFLFVVRHNPTETILFMGQVMEP
partner: B1 partner

Variants of: B1
Conditions: with tm11e_mouse Tmprss11e

Variant	effect of a mutation on the interaction
MRFFPILCLVLFISHGVASRRHSHSKKKKAKESSVGAVGPPSSKDFAFRLYRALVSESPGQNVFFSPLSVSMSLGMLSLGAGLKTKTQILDGLGLSLQQGQEDKLHKGFQQLLQRFRQPSDGLQLSLGSALFKDPAVHIRDDFLSAMKTLYMSDTFSTNFGNPEIAKKQINNYVAKQTKGKIVDFIKDLDSTHVMIVVNYIFFKAKWQTAFSETNTHKMDFHVTPKRTTQVPMMNREDGYSYYLDQNISCTVVGIPYQGNAIALFILPSEGKMKQVEDGLDERTLRNWLKMFTKRRLDLYLPKFSIEATYKLENVLPKLGIQDVFTTHADLSGITDHTNIKLSEMVHKSMMEVEESGTTAAAITGAIFTFRSAAPSSLKIEFTRPFLLTLMEDSHILFVGKVTRP [R374A]	decreasing interaction

Variants of: B2
Conditions: with tm11e_mouse Tmprss11e

Variant	effect of a mutation on the interaction
MQMSSALACLILGLVLVSGKGFTLPLRESHTAHQATDFGVKVFQQVVQASKDRNVVFSPYGVSSVLAMLQMTTAGKTRRQIQDAMGFKVNEKGTAHALRQLSKELMGPWNKNEISTADAIFVQRDLELVQGFMPHFFKLFQTMVKQVDFSEVERARFIINDWVERHTKGMINDLLAKGAVDELTRLVLVNALYFSGQWKTPFLEASTHQRLFHKSDGSTVSVPMMAQSNKFNYTEFTTPDGLEYDVVELPYQRDTLSMFIAAPFEKDVHLSALTNILDAELIRQWKGNMTRLPRLLILPKFSLETEVDLRGPLEKLGMPDMFSATLADFTSLSDQEQLSVAQALQKVRIEVNESGTVASSSTAFVISAAMAPTEMVIDRSFLFVVRHNPTETILFMGQVMEP [R369A]	decreasing interaction
MQMSSALACLILGLVLVSGKGFTLPLRESHTAHQATDFGVKVFQQVVQASKDRNVVFSPYGVSSVLAMLQMTTAGKTRRQIQDAMGFKVNEKGTAHALRQLSKELMGPWNKNEISTADAIFVQRDLELVQGFMPHFFKLFQTMVKQVDFSEVERARFIINDWVERHTKGMINDLLAKGAVDELTRLVLVNALYFSGQWKTPFLEASTHQRLFHKSDGSTVSVPMMAQSNKFNYTEFTTPDGLEYDVVELPYQRDTLSMFIAAPFEKDVHLSALTNILDAELIRQWKGNMTRLPRLLILPKFSLETEVDLRGPLEKLGMPDMFSATLADFTSLSDQEQLSVAQALQKVRIEVNESGRVRSSSTAFVISARMAPTEMVIDRSFLFVVRHNPTETILFMGQVMEP [T356R;A358R]	decreasing interaction
